Seven molecules from patent US20220380455A1 (Alector, published 2022) can be followed below.

Several values for one entry are separate records, joined by “and”; a condition that tells them apart may be missing. Equal entries are not always repeated.

T1: BSA-MS4A6A-ECL2 peptide (human, BSA-conjugated)
T1 construct: Synthetic peptide derived from ECL2, conjugated to BSA, coated on the ELISA plate; also called MS4A6A-ECL2 BSA conjugated peptide; BSA-MS4A6A-ELC2 peptide
T1 peptide: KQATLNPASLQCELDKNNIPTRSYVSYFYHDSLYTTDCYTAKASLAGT

T2: MS4A6A ECL1 peptide (human)
T2 construct: the description elsewhere gives ECL1 as 68-84; Human and cyno ECL1 are said to be identical
T2 peptide: SASFSPNFTQVTSTLLNS

T3: MS4A6A ECL2 peptide (human)
T3 construct: also called MS4A6A ECL-2 peptides
T3 peptide: T1 peptide

T4: cynomolgus (cyno) MS4A6A (cynomolgus, UniProt Q9H2W1 1-246 (human entry))
T4 construct: Full-length protein expressed in transfected HEK293, U937 or K562 cells (flow cytometry)
T4 chain: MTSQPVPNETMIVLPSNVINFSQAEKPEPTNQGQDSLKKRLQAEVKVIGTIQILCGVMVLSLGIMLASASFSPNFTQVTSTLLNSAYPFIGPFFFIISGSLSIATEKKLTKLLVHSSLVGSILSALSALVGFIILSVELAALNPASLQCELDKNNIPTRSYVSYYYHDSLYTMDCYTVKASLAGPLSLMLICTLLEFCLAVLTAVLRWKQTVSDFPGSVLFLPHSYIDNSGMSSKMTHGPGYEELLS

B1: 6A-1 (antibody, V domains shown)
VH: EVQLQQSGPELVKPGASVKISCKASGYSFTGYYMHWVKQSPEDSLEWIGAINPSTGGSTYSQKFKDKATLTVDKSSSTAYMQLKSLTSEESAVYYCTRFDGYGYWGQGTLVTVSA
VL: DIVMTQAAFSNPVTLGTSASISCRSSKSLLHSNGITYLYWYLQKPGQSLQLLIYQMSNLASGVPDRFSGSGSGTDFTLRISRVEAEDVGVYYCAQNLELPWTFGGGTKLEIK
notes: Mouse hybridoma antibody, tested as hybridoma supernatant (mouse IgG, detected or captured via anti-mouse IgG Fc); also called anti-MS4A6A antibody 6A-1
B2: 6A-4 (antibody, V domains shown)
VH: B1 VH
VL: B1 VL
notes: Mouse hybridoma antibody, tested as hybridoma supernatant (mouse IgG, detected or captured via anti-mouse IgG Fc); also called anti-MS4A6A antibody 6A-4
B3: 6A-20 (antibody, V domains shown)
VH: EVQLQQSGPELVKPGASVKMSCKASGYTFTDYFMKWVKQSHGKSLEWIGDINPKNGDTFYNQKFKGKATLTVDKSSSTAYMQLNSLTSEDSAVYYCARPGYFDVWGAGTTVTVSS
VL: DIVMTQAAPSVPVTPGESVSISCRSSKSLLHSDGNTYLYWFLQRPGQSPQLLIYRMSNLAPGVPDRFSGSGSGTAFTLRISRVEAEDVGVYYCMQHLEFPFIFGAGTKLELK
notes: Mouse hybridoma antibody (SJL mouse), tested as hybridoma supernatant (mouse IgG, detected or captured via anti-mouse IgG Fc); also called anti-MS4A6A antibody 6A-20
B4: 6A-7 (antibody, V domains shown)
VH: QVQLQQSGAELARPGASVKMSCKASGYTFTSYAMHWVKQRPGQGLEWIGYINPSSGYTYYNQKFKDKATLTADKSSSTAYMQLSSLTSEDSAVYYCARSYYGNYEGYLDVWGAGTTVTVSS
VL: NIVLTQSPASLAVSLGQRATISCRASESVESYGKSFIHWYQQKPGQPPKLLIFLASNLESGVPARFSGSGSRTDFTLTIDPVEADDAATYYCQQNNVGPYTFGGGTKLEIK
notes: Mouse hybridoma antibody, tested as hybridoma supernatant (mouse IgG, detected or captured via anti-mouse IgG Fc); also called anti-MS4A6A antibody 6A-7
B5: 6A-17 (antibody, V domains shown)
VH: QVQLKESGPGLVAPSQSLSITCTISGFSLTSYGVHWVRQPPGKGLEWLVVIWSDGSTTYNSALKSRLSISKDNSKSQVFLKMNGLQTDDTAMYYCARHRGNYPYYTMDYWGQGTSVTVSS
VL: DIQMTQTTSSLSASLGDRVTISCRASQDISNYLNWYQQKPDGTVKLLIYYTSVLHSGVPSRFSGSGSGTDYSLTISNLEQEDIATYFCQQGNTLPWTFGGGTKLEIK
notes: Mouse hybridoma antibody, tested as hybridoma supernatant (mouse IgG, detected or captured via anti-mouse IgG Fc); also called anti-MS4A6A antibody 6A-17
B6: 6A-2 (antibody, V domains shown)
VH: DVQLQESGPGLVKPSQSLSLTCSVTGYSITSGYYWNWIRQFPGNKLEWLGYITYDGDTDYNPSLKNRVSITRDTSKNQFFLNLISVTPEDTATYYCAREDSFGYWGQGTLVTVSA
VL: not shown
notes: Mouse hybridoma antibody, tested as hybridoma supernatant (mouse IgG, detected or captured via anti-mouse IgG Fc); also called anti-MS4A6A antibody 6A-2
B7: 6A-3 (antibody, V domains shown)
VH: B3 VH
VL: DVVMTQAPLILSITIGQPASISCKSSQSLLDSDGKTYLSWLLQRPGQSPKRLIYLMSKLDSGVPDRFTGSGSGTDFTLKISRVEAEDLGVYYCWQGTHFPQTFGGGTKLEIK
notes: Mouse hybridoma antibody, tested as hybridoma supernatant (mouse IgG, detected or captured via anti-mouse IgG Fc); also called anti-MS4A6A antibody 6A-3

For the first test, the target named is T1, BSA-MS4A6A-ECL2 peptide. In words: peptide ELISA, hybridoma supernatant. The method, then:
(§1) Anti-MS4A6A hybridoma supernatants were tested for binding to MS4A6A peptides derived from ECL1 (amino acid residues 68-85 of human MS4A6A of SEQ ID NO:1) and ECL2 (amino acid residues 138-185 of human MS4A6A of SEQ ID NO:1) sequences, using an enzyme-linked immunosorbent assay (ELISA). Briefly, 96-well polystyrene plates were coated with 1-10 μg/mL of synthetic free or BSA-conjugated peptides in coating buffer (0.05M carbonate buffer, pH9.6, Millipore Sigma C3041) overnight at 4° C. Coated plates were then blocked with ELISA diluent (PBS+0.5% BSA+0.05% Tween20) for 1-hour, washed 3×300 μL in PBST (PBS+0.05% Tween20, Thermo 28352), and then the antibodies were added at various dilutions (100-1000×) in ELISA diluent. After 30 mins incubation (room temperature, with shaking), the plates were washed 3×300 μl in PBST. A secondary anti-mouse HRP antibody (Jackson Immunoresearch CAT #115-035-003) was added at a 1:1000 dilution in ELISA diluent (50 μL/well) and incubated for 30 minutes at room temperature with shaking. After a final set of washes (3×300 μl in PBST), 50 μL of TMB substrate (BioFx TMBW-1000-01) was added and the reaction was then quenched after 5-10 mins with 50 μL of stop solution (BioFx BSTP-1000-01). The quenched reaction wells were detected for absorbance at […] with a BioTek Synergy Microplate Reader using GENS 2.04 software.
Background: An ELISA detects its analyte on a solid surface through an enzyme-linked reagent.
With B1, the binding result is recorded as “no binding”.
The same measure, in the same setting: with B2 the entry was “no binding”; with B3, “no binding”.
For the molecule B4, the binding result was “no binding”.
Still for that read-out and setting: with B5 the entry was “no binding”.

A further test concerns the target T2, MS4A6A ECL1 peptide. Briefly: peptide ELISA, hybridoma supernatant. On the procedure:
as §1
As for B2, the binding result was “no binding”.
Same read-out and setting: with B3 the entry was “no binding”.
Consider B4, for which the binding result is listed as “no binding”.
On to B5, for which the binding result is given as “no binding”.

The target of the next test is T2, MS4A6A ECL1 peptide. In words: array SPR (Carterra MX-96), antibody captured, peptide injected. On the procedure: (§2) Binding kinetic characterization of the purified antibodies to MS4A6A ECL1 and ECL2 peptides was performed by Carterra (South San Francisco, Calif.) using a proprietary array Surface Plasmon Resonance (SPR) instrument (MX-96) as follows. Antibodies were printed onto a CMD5OOD chip (Xantec #SPMX CMD500D lot #SC CMD500D0117.a Exp. 31.12.18) using the Continuous Flow Microspotter (CFM). First, the chip was activated with 100 mM MES pH 5.5, 100 μL EDC (133 mM final), 100 μL of S-NHS (33.3 mM final), for 7 minutes. A lawn of anti-mouse IgG-Fc (Jackson ImmunoResearch CAT #115-005-071 lot#130410) was injected for 15 minutes to establish a surface density of 10000-12000 RU, after which the chip surface was deactivated with 1 M ethanolamine at pH 8.5 for 10 minutes. Anti-MS4A6A antibodies in question, in the form of hybridoma supernatants diluted 2:1 with HBS-EP+buffer (Teknova CAT #H8022), were then printed as duplicates with a 20 minute and a 5 minutes print from the same sample solution. Control antibodies were diluted to 20 μ/ml for printing.
(§3) To perform kinetic analysis, the peptides in question were prepared in HBS-EP+buffer with lmg/ml BSA at final assay concentrations of 2000 nM, 400 nM, 80 nM, 16 nmM, and 3.2 nM. These were then injected on the chip for five minutes, followed by a seven-minute dissociation period at 8 uL per second in a non-regenerative kinetic series. Duplicate measurements for each anti-MS4A6A antibody were taken to ensure reproducibility.
(§4) Kₐ (association rate constant; Kₒₙ), Kd (dissociation rate constant; Koff) and KD (equilibrium constant) to MS4A6A ECL-2 peptides were calculated for each of the 23 anti-MS4A6A antibodies tested, the results of which are shown below in Table 5 (clones that bound too weakly to determine these values are denoted as N/A in Table 5).
Turning to B6, the binding result is “no binding (tested: 2000 nM)”.
Same read-out and setting: with B1 the entry was “no binding (tested: 2000 nM)”; with B7, “no binding (tested: 2000 nM)”.

In the next test the target is T3, MS4A6A ECL2 peptide. In words: array SPR (Carterra MX-96), antibody captured, peptide injected; both duplicates N/A. On the procedure:
as §2, §3, §4
For the molecule B1, the binding result is “no binding (tested: 2000 nM)”.
Same read-out and setting: the same measure for B2: “no binding (tested: 2000 nM)”; for B3: “no binding (tested: 2000 nM)”; for B4: “no binding (tested: 2000 nM)”.
With B5, the binding result is given as “no binding (tested: 2000 nM)”.

A further test deals with T3, MS4A6A ECL2 peptide. In words: array SPR (Carterra MX-96), antibody captured on anti-mouse IgG-Fc, ECL2 peptide injected. On the procedure:
as §2, §3, §4
The term Kd denotes the concentration at which binding is half-saturated. Low values mean a tighter complex, high ones a looser complex. One may read the koff as a measure of how fast the partners let go of each other. A low value points to a long-lived complex. The kon is the second-order rate constant of association. High values mean fast association, low ones slow association. For the molecule B6, the Kd is 200 nM and 120 nM; the koff is 0.001 s⁻¹ and 0.00098 s⁻¹; the kon was 5300 M⁻¹ s⁻¹ and 8300 M⁻¹ s⁻¹.
Regarding B7, the Kd was 120 nM and 94 nM; the koff is 0.0006 s⁻¹ and 0.00065 s⁻¹; the kon was 4800 M⁻¹ s⁻¹ and 6800 M⁻¹ s⁻¹.

A further test concerns the target T4, cynomolgus (cyno) MS4A6A. Briefly: flow cytometry, hybridoma supernatant, HEK293 transfected with cyno MS4A6A over parental HEK293; Screen 1. The method, then:
(§5) Positive clones were expanded and then rescreened for specificity against HEK293 cells overexpressing cyno MS4A6A and parental HEK293 cells. Briefly, previously prepared, cryopreserved transiently-transfected cells were labeled with LIVE/DEAD Fixable Aqua Dead Cell Stain Kit (ThermoFisher Scientific L34957) on ice for 30 minutes. After a wash with PBS, 2×10⁵ cells were aliquoted per well in 96-well round bottom plates and incubated with 50 μl of culture supernatant on ice for 30 mins. […] Following this secondary incubation, the cells were again washed twice with ice-cold FACS buffer and resuspended in a final volume of 200 μl of FACS buffer. Analysis was performed on a FACS Canto system (BD Biosciences), with sort gates drawn to exclude dead (Aqua-positive) cells. […] The screen was repeated twice, and the numbers reported here represent the ratio of mean fluorescence level in transfected cells over parental cells.
On the technique in general: A flow cytometer gives signals particle by particle.
Consider B6, for which the “ratio of APC MFI on MS4A6A+/HEK parental cells” value (shortened to “ratio of APC MFI”) came out at 25.7 ratio.
Same read-out and setting: with B1 the figure was 7.5 ratio.
The same measure, in the same setting: with B2 the figure was 5.4 ratio; with B7, 24.1 ratio.
The same measure, in the same setting: with B4 the figure was 3.6 ratio; with B5, 19.3 ratio.

In a further test the target is T4, cynomolgus (cyno) MS4A6A. Briefly: flow cytometry, hybridoma supernatant, HEK293 transfected with cyno MS4A6A over parental HEK293; Screen 2. On the procedure: as §5
Regarding B6, the “ratio of APC MFI” value turned out to be 75.5 ratio.
For B1, the “ratio of APC MFI” value came out at 7.6 ratio.
Same read-out and setting: the same measure for B2: 16.2 ratio; for B7: 63.7 ratio; for B4: 8.3 ratio.
On the same count and under the same terms, the same measure for B5: 178 ratio.
